{
  "source": "patent US20250090644A1",
  "assay_in_all_cases": "cell-based or functional assay",
  "key": {"[1]": {"target": "E. coli expressed recombinant human microplasmin K642A (Table 3) (human) (UniProt P00747)"}, "[2]": {"target": "E. coli expressed recombinant human microplasmin Lys607Ala (human) (UniProt P00747)"}, "[3]": {"target": "E. coli expressed recombinant human microplasmin, wild type (human) (UniProt P00747)"}, "[4]": {"target": "E. coli expressed recombinant human microplasmin Ser608Ala (human) (UniProt P00747)"}, "[5]": {"target": "E. coli expressed recombinant human microplasmin Gly739Ala (human) (UniProt P00747)"}, "[6]": {"target": "E. coli expressed recombinant human microplasmin Arg610Ala (human) (UniProt P00747)"}, "[7]": {"target": "E. coli expressed recombinant human microplasmin Arg582Ala (human) (UniProt P00747)"}, "[8]": {"target": "E. coli expressed recombinant human microplasmin Pro642Ala (human) (UniProt P00747)"}, "[9]": {"target": "E. coli expressed recombinant human microplasmin Glu641Ala (human) (UniProt P00747)"}, "[10]": {"target": "E. coli expressed recombinant human microplasmin Phe587Ala (human) (UniProt P00747)"}, "[11]": {"target": "E. coli expressed recombinant human microplasmin Met585Ala (human) (UniProt P00747)"}},
  "data": [
    {"binder": "α2-antiplasmin (protein, UniProt P08697 40-491, looked up) NQEQVSPLTLLKLGNQEPGGQTALKSPPGVCSRDPTPEQTHRLARAMMAFTADLFSLVAQTSTCPNLILSPLSVALALSHLALGAQNHTLQRLQQVLHAGSGPCLPHLLSRLCQDLGPGAFRLAARMYLQKGFPIKEDFLEQSEQLFGAKPVSLTGKQEDDLANINQWVKEATEGKIQEFLSGLPEDTVLLLLNAIHFQGFWRNKFDPSLTQRDSFHLDEQFTVPVEMMQARTYPLRWFLLEQPEIQVAHFPFKNNMSFVVLVPTHFEWNVSQVLANLSWDTLHPPLVWERPTKVRLPKLYLKHQMDLVATLSQLGLQELFQAPDLRGISEQSLVVSGVQHQSTLELSEVGVEAAAATSIAMSRMSLSSFSVNRPFLFFIFEDTTGLPLFVGSVRNPNPSAPRELKEQQDSPGNKDFLQSLKGFPRGDKLFGPDLKLVPPMEEDYPQFGSPK", "values": [
      {"measurement": "IC50 (relative to the µPlm WT enzyme) (fold relative to WT)", "setting": "[1]", "value": 1},
      {"measurement": "IC50 (relative to the µPlm WT enzyme) (fold relative to WT)", "setting": "[2]", "value": 1},
      {"measurement": "IC50 (relative to the µPlm WT enzyme) (fold relative to WT)", "setting": "[3]", "value": 1},
      {"measurement": "IC50 (relative to the µPlm WT enzyme) (fold relative to WT)", "setting": "[4]", "value": 1.2},
      {"measurement": "α2-AP inhibition of µPlm activity", "setting": "[5]", "value": "> 400", "unit": "nM"},
      {"measurement": "IC50 (relative to the µPlm WT enzyme) (fold relative to WT)", "setting": "[6]", "value": 1.7},
      {"measurement": "IC50 (relative to the µPlm WT enzyme) (fold relative to WT)", "setting": "[7]", "value": 1.6},
      {"measurement": "IC50 of α2-AP inhibition (fold of WT) (fold relative to WT)", "setting": "[8]", "value": 2},
      {"measurement": "IC50 (relative to the µPlm WT enzyme) (fold relative to WT)", "setting": "[9]", "value": 1.6},
      {"measurement": "IC50 (relative to the µPlm WT enzyme) (fold relative to WT)", "setting": "[10]", "value": 3.9},
      {"measurement": "activity remaining in the presence of α2-AP (% activity remaining)", "setting": "[10]", "value": 50},
      {"measurement": "IC50 (relative to the µPlm WT enzyme) (fold relative to WT)", "setting": "[11]", "value": 1.2}
    ]}
  ]
}
